Data from patent US20110105394A1 (Novo Nordisk, published 2011).
Bridges are numbered along the chain shown (N, C = ends). The star is where a group is joined. X2 = (S)‑4‑Carboxy‑4‑(19-carboxynonadecanoylamino)butyryl, O=C(O)CCCCCCCCCCCCCCCCCCC(=O)N[C@@H](CCC(=O)*)C(=O)O

T1: Amylin 3(a) receptor (human calcitonin receptor (CTa) with RAMP-3) (human, UniProt P30988 25-474; O60896 24-148, limits assumed)
T1 sequence (looked up) 1: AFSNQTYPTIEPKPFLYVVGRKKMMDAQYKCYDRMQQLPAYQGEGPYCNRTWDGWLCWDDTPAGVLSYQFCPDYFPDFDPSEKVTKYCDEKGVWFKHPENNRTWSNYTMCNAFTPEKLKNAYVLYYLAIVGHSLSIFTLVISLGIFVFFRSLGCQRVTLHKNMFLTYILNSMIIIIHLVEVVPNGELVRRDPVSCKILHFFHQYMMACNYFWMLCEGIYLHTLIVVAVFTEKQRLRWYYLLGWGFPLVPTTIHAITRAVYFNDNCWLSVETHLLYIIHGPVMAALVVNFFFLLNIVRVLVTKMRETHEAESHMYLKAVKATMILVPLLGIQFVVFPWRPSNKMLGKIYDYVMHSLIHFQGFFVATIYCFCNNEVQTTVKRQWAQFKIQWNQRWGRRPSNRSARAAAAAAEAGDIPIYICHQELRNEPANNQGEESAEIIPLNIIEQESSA
T1 sequence (looked up) 2: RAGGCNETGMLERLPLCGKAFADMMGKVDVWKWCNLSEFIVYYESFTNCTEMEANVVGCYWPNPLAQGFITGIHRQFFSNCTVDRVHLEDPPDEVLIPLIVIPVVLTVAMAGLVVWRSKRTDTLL


Biological target: T1, Amylin 3(a) receptor (human calcitonin …)
Test: cell-based or functional assay

Binder	Potency Luciferase [nM]
X2-RKCNTATCATQRLANFLSHSSNNFGPILPPTNVGSNTY-NH2 (disulfide 3-8; SMILES CC[C@H](C)[C@H](NC(=O)[C@@H]1CCCN1C(=O)CNC(=O)[C@H](Cc1ccccc1)NC(=O)[C@H](CC(N)=O)NC(=O)[C@H](CC(N)=O)NC(=O)[C@H](CO)NC(=O)[C@H](CO)NC(=O)[C@H](Cc1c[nH]cn1)NC(=O)[C@H](CO)NC(=O)[C@H](CC(C)C)NC(=O)[C@H](Cc1ccccc1)NC(=O)[C@H](CC(N)=O)NC(=O)[C@H](C)NC(=O)[C@H](CC(C)C)NC(=O)[C@H](CCCNC(=N)N)NC(=O)[C@H](CCC(N)=O)NC(=O)[C@@H](NC(=O)[C@H](C)NC(=O)[C@@H]1CSSC[C@H](NC(=O)[C@H](CCCCN)NC(=O)[C@H](CCCNC(=N)N)NC(=O)CC[C@H](NC(=O)CCCCCCCCCCCCCCCCCCC(=O)O)C(=O)O)C(=O)N[C@@H](CC(N)=O)C(=O)N[C@@H]([C@@H](C)O)C(=O)N[C@@H](C)C(=O)N[C@@H]([C@@H](C)O)C(=O)N1)[C@@H](C)O)C(=O)N[C@@H](CC(C)C)C(=O)N1CCC[C@H]1C(=O)N1CCC[C@H]1C(=O)N[C@H](C(=O)N[C@@H](CC(N)=O)C(=O)N[C@H](C(=O)NCC(=O)N[C@@H](CO)C(=O)N[C@@H](CC(N)=O)C(=O)N[C@H](C(=O)N[C@@H](Cc1ccc(O)cc1)C(N)=O)[C@@H](C)O)C(C)C)[C@@H](C)O) [N-alpha-[(S)-4-Carboxy-4-(19-carboxynonadecanoylamino)butyryl]-Arg-[Ser17]-pramlintide]	0.1
X2-RKCNTATCATQRLANFLPHSSNNFGPILPPTNVGSNTY-NH2 (disulfide 3-8; SMILES CC[C@H](C)[C@H](NC(=O)[C@@H]1CCCN1C(=O)CNC(=O)[C@H](Cc1ccccc1)NC(=O)[C@H](CC(N)=O)NC(=O)[C@H](CC(N)=O)NC(=O)[C@H](CO)NC(=O)[C@H](CO)NC(=O)[C@H](Cc1c[nH]cn1)NC(=O)[C@@H]1CCCN1C(=O)[C@H](CC(C)C)NC(=O)[C@H](Cc1ccccc1)NC(=O)[C@H](CC(N)=O)NC(=O)[C@H](C)NC(=O)[C@H](CC(C)C)NC(=O)[C@H](CCCNC(=N)N)NC(=O)[C@H](CCC(N)=O)NC(=O)[C@@H](NC(=O)[C@H](C)NC(=O)[C@@H]1CSSC[C@H](NC(=O)[C@H](CCCCN)NC(=O)[C@H](CCCNC(=N)N)NC(=O)CC[C@H](NC(=O)CCCCCCCCCCCCCCCCCCC(=O)O)C(=O)O)C(=O)N[C@@H](CC(N)=O)C(=O)N[C@@H]([C@@H](C)O)C(=O)N[C@@H](C)C(=O)N[C@@H]([C@@H](C)O)C(=O)N1)[C@@H](C)O)C(=O)N[C@@H](CC(C)C)C(=O)N1CCC[C@H]1C(=O)N1CCC[C@H]1C(=O)N[C@H](C(=O)N[C@@H](CC(N)=O)C(=O)N[C@H](C(=O)NCC(=O)N[C@@H](CO)C(=O)N[C@@H](CC(N)=O)C(=O)N[C@H](C(=O)N[C@@H](Cc1ccc(O)cc1)C(N)=O)[C@@H](C)O)C(C)C)[C@@H](C)O) [N-alpha-[(S)-4-Carboxy-4-(19-carboxynonadecanoylamino)butyryl]-Arg-[Pro17]-pramlintide]	2
